Article PMC7885909 (bioRxiv, 2021)
Where a chain is given by its changes, count along the chain named.

B1: ab017 IgG (antibody, V domains shown)
VH: not shown
VL: QSVLTQPASVSGSPGQSITISCTGTSSDVGGYNYVSWYQQHPGKAPKLMIYDVSNRPSGVSNRFSGSKSGNTASLTISGLQAEDEADYYCSSYTSSSSVVFGGGTKLTVL
B2: ab072 IgG (antibody, V domains shown)
VH: not shown
VL: QSALTQPASVSGSPGQSITISCTGTSSDVGGYNYVSWYQQHPGKAPKLMIYDVSNRPSGVSNRFSGSKSGNTASLTISGLQAEDEADYYCSSYTSSSTLVVFGTGTKVTVL
B3: ab109 IgG (antibody, V domains shown)
VH: QVQLVQSGGGVVQPGRSLRLSCAASGFTFSSYAMHWVRQAPGKGLEWVAVISYDGSNKYYADSVKGRFTISRDNSKNTLYLQMNSLRAEDTAVYYCARDQEYYDILTGASGGFDYWGQGTLVTVSS
VL: not shown
B4: ab114 IgG (antibody, V domains shown)
VH: QVQLVQSGGGVVQPGRSLRLSCAASGFTFSSYGMHWVRQAPGKGLEWVAVIWYDGSNKYYADSVKGRFTISRDNSKNTLYLQMNSLRAEDTAVYYCARDVSSGWSPGDFDYWGQGTLVTVSS
VL: B1 VL with D52E, S98T, V99Y, G103T, L107V
B5: ab119 IgG (antibody, V domains shown)
VH: EVQLVESGGGLIQPGGSLRLSCAASGFTVSSNYMSWVRQAPGKGLEWVSVIYSGGSTYYADSVKGRFTISRDNSKNTLYLQMNSLRAEDTAVYYCARDLRGITWGQGTLVTVSS
VL: not shown
B6: ab007 IgG (antibody, V domains shown)
VH: QVQLVQSGAEVKKPGSSVKVSCKASGGTFSSYAISWVRQAPGQGLEWMGGIIPIFGTANYAQKFQGRVTITADESTSTAYMELSSLRSEDTAVYYCASPHCSSTSCLYHYYYYGMDVWGQGTTVTVSS
VL: not shown
B7: ab072 Fab (Fab, V domains shown)
VH: not shown
VL: B2 VL

Target: WIV1 RBD (bat SARS-like CoV WIV1, GenBank …, UniProt U5WI05)
Assay: ELISA

Row | Binder | binding result
1 | B1 | binds
2 | B2 | binds
3 | B3 | binds
4 | B4 | binds

Target: RaTG13 RBD (bat CoV RaTG13, GenBank MN996532.2, UniProt A0ABF7PLN6)
Assay: ELISA

Row | Binder | binding result
5 | B1 | binds
6 | B2 | binds
7 | B3 | binds
8 | B4 | binds

Target: SHC014 RBD (bat CoV SHC014, GenBank QJE50589.1, UniProt A0A6M3U4F6)
Assay: ELISA

Row | Binder | binding result
9 | B1 | binds
10 | B2 | binds
11 | B3 | binds
12 | B4 | binds

Target: T1, SARS-CoV-2 receptor binding domain (RBD), wild type, monomeric (SARS-CoV-2, GenBank MN975262.1 (wild …, UniProt A0A679G9E9))
Assay: ELISA

Row | Binder | binding result
13 | B1 | binds
14 | B2 | binds
15 | B3 | binds
16 | B4 | binds
17 | B5 | binds
18 | B6 | binds

Target: SARS-CoV RBD (SARS-CoV, GenBank ABD72970.1, UniProt Q202E5)
Assay: ELISA

Row | Binder | binding result
19 | B1 | binds
20 | B2 | binds
21 | B3 | binds
22 | B4 | binds

Target: T1, SARS-CoV-2 receptor binding domain …
Assay: BLI

Row | Binder | binding result
23 | B7 | binds
